Holding throughout (type): cell-based
The target of one data set is T1, thyroid receptor β (TRβ) (Homo sapiens, UniProt P10828).
T1 construct: the whole cell actions of TIF2 with full length AR and TRβ; expressed in transfected cells; host or cells: CV-1
T1 sequence (P10828 1-461): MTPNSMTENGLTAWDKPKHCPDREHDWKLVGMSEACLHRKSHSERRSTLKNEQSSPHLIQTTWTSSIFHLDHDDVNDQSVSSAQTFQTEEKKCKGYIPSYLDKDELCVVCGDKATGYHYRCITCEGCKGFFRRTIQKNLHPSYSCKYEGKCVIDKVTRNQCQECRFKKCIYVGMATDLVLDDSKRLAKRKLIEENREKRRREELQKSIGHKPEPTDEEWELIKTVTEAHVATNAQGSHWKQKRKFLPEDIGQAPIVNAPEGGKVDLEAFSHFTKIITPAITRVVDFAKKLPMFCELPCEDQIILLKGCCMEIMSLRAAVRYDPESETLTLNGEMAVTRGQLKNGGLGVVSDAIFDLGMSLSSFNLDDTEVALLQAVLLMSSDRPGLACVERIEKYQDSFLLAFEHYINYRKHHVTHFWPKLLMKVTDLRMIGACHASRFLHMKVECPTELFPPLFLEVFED
Nature of the data set: TRβ-mediated induction of reporter in CV-1 cells. As to conditions: triiodothyronine; regardless of whether TIF2 is present. Here is the method:
FIG. 6D1-2 illustrate the effects of STAMP and TIF2 on androgen receptor (AR, FIG. 6D1) and thyroid receptor β (TRβ, FIG. 6D2) expression. […] Luciferase activities, normalized to the internal Renilla control values, and the fold changes in EC50 and fold induction were determined and plotted as in FIG. 4B.

The next data set deals with T2, PPARγ2 (Homo sapiens, UniProt P37231).
T2 construct: plus VP16 fused to the indicated full length receptors; expressed in transfected cells; host or cells: CV-1
T2 sequence (P37231 1-505): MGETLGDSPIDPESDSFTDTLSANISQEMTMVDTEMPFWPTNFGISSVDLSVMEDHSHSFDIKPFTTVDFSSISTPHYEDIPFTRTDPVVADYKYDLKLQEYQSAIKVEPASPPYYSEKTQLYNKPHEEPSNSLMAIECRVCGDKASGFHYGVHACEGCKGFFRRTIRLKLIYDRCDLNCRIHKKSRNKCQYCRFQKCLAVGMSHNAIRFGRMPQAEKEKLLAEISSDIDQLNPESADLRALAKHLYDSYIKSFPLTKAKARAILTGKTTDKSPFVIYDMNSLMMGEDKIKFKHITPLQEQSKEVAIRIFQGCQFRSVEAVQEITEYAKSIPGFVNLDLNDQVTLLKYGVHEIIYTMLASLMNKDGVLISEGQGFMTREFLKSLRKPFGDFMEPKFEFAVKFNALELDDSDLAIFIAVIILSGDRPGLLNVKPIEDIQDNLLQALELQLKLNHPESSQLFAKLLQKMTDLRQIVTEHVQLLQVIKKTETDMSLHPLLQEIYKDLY
Nature of the data set: Mammalian two-hybrid assay with VP16 full length receptor: PPARγ2. As to conditions: 1 μM roziglitazone. Here is the method: FIG. 6C1-3 illustrate the association of STAMP with assorted steroid/nuclear receptors, including glucocorticoid receptors (GRs), progesterone receptors (PRs), androgen receptors (ARs), estrogen receptors (ER α or β), PPARγ2 receptors, thyroid receptor beta (TR), and retinoid (α) receptors (RAR α or RXR α). Triplicate samples of CV-1 cells were transfected (as described for FIG. 6B) with GAL, or GAL fused to TIF2.4 or STAMP834C, plus VP16 fused to the indicated full length receptors and incubated with the appropriate steroid (1 μM Dex, 20 nM R5020, 1 nM R1881, 0.1 μM triiodothyronine, or 1 μM estradiol, roziglitazone, or 9-cis-retinoic acid). The average relative luciferase activities of 2-3 experiments±S.E.M. were then plotted. FIG. 6C1 illustrates the effects of STAMP association upon GR, PR and AR induced expression. FIG. 6C2 illustrates the effects of STAMP association upon ERα, ERβ and PPARγ2 induced expression. FIG. 6C3 illustrates the effects of STAMP association upon TR, RARα and RXRα induced expression.
These assays were conducted as described (He et al., 2002). […]

The subject of a further data set is TIF2.4m123. Briefly: Mammalian two-hybrid assay in CV-1 cells with TIF2.4m123. Conditions: equal amounts of protein. The source says: (§1) FIG. 2A-2C illustrate the isolation and characterization of the partial clone of the protein that binds to TIF2.4. […] Five clones were obtained but only two (clones I and V) contained a protein that was needed for colony growth in the presence of the pSos/TIF2.4 fusion protein. After initial screening, only clone I (also named 6-6CL1) was selected for further investigation. FIG. 2B and FIG. 2C illustrate the selectivity of 6-6CL1 interactions with TIF2.4 in mammalian two-hybrid assays. Triplicate samples of CV-1 cells in 24-well plates were transiently transfected with the indicated GAL-DBD and VP16-AD plasmids along with the GAL4-regulated reporter, pFRLuc. The relative luciferase activity, normalized for the activity of the internal Renilla control, was determined and plotted as the average±S.D. The much lower activity of GAL/TIF2.4m123 was previously shown not to be due to unequal levels of protein expression (He et al., 2002). Similar results were obtained in three additional experiments. […] Triplicate samples of CV-1 cells in 24-well plates were analyzed as in (B&C) after being transiently transfected with GAL±6-6CL1 constructs and pFRLuc reporter along with VP16 chimeras of SRC-1 (FIG. 2D) or TIF2 (FIG. 2E) segments. Similar results for SRC-1 were obtained in two additional experiments (ND=not determined). […]

A further data set addresses T3, TIF2(1140C) (Homo sapiens, UniProt Q15596).
T3 construct: the PCR product of TIF2 with the TIF2-1140F and TIF2-1464R primers; expressed in transfected cells; host or cells: CV-1
T3 sequence (Q15596 1140-1464): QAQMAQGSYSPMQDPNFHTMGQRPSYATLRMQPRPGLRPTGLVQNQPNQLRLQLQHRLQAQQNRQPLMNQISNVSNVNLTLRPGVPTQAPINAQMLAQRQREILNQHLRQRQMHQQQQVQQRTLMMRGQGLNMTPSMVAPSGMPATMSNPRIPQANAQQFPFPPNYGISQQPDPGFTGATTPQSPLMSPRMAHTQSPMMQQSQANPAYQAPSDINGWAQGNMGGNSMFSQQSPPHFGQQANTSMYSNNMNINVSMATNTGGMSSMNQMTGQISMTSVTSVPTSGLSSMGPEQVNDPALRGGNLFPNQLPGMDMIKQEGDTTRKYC
Briefly: Mammalian two-hybrid assay in CV-1 cells with TIF2(1140C).
Text: as §1

B1: STAMP: SRC-1 and TIF2 Associated Modulatory Protein, 1277 amino acid human polypeptide, expressed from transfected plasmid (protein)
chain: MARDLEETASSSEDEEVISQEDHPCIMWTGGCRRIPVLVFHADAILTKDNNIRVIGERYHLSYKIVRTDSRLVRSILTAHGFHEVHPSSTDYNLMWTGSHLKPFLLRTLSEAQKVNHFPRSYELTRKDRLYKNIIRMQHTHGFKVFHILPQTFLLPAEYAEFCNSYSKDRGPWIVKPVASSRGRGVYLINNPNQISLEENILVSRYINNPLLIDDFKFDVRLYVLVTSYDPLVIYLYEEGLARFATVRYDQGAKNIRNQFMHLTNYSVNKKSGDYVSCDDPEVEDYGNKWSMSAMLRYLKQEGRDTTALMAHVEDLIIKTIISAELAIATACKTFVPHRSSCFELYGFDVLIDSTLKPWLLEVNLSPSLACDAPLDLKIKASMISDMFTVVGFVCQDPAQRASTRPIYPTFESSRRNPFQKPQRCRPLSASDAEMKNLVGSAREKGPGKLGGSVLGLSMEEIKVLRRVKEENDRRGGFIRIFPTSETWEIYGSYLEHKTSMNYMLATRLFQDRMTADGAPELKIESLNSKAKLHAALYERKLLSLEVRKRRRRSSRLRAMRPKYPVITQPAEMNVKTETESEEEEEVALDNEDEEQEASQEESAGFLRENQAKYTPSLTALVENTPKENSMKVREWNNKGGHCCKLETQELEPKFNLMQILQDNGNLSKMQARIAFSAYLQHVQIRLMKDSGGQTFSASWAAKEDEQMELVVRFLKRASNNLQHSLRMVLPSRRLALLERRRILAHQLGDFIIVYNKETEQMAEKKSKKKVEEEEEDGVNMENFQEFIRQASEAELEEVLTFYTQKNKSASVFLGTHSKISKNNNNYSDSGAKGDHPETIMEEVKIKPPKQQQTTEIHSDKLSRFTTSAEKEAKLVYSNSSSGPTATLQKIPNTHLSSVTTSDLSPGPCHHSSLSQIPSAIPSMPHQPTILLNTVSASASPCLHPGAQNIPSPTGLPRCRSGSHTIGPFSSFQSAAHIYSQKLSRPSSAKAGSCYLNKHHSGIAKTQKEGEDASLYSKRYNQSMVTAELQRLAEKQAARQYSPSSHINLLTQQVTNLNLATGIINRSSASAPPTLRPIISPSGPTWSTQSDPQAPENHSSSPGSRSLQTGGFAWEGEVENNVYSQATGVVPQHKYHPTAGSYQLQFALQQLEQQKLQSRQLLDQSRARHQAIFGSQTLPNSNLWTMNNGAGCRISSATASGQKPTTLPQKVVPPPSSCASLVPKPPPNHEQVLRRATSQKASKGSSAEGQLNGLQSSLNPAASVPITSSTDPAHTKI
Turning to B1, in the data set with thyroid receptor β (TRβ), the “increase of the fold induction with TRβ” value is “little ability” and the “left-shift in the dose-response curve with TRβ” value is on record as “little ability”.

B2: STAMP834C: STAMP fragment amino acids 834-1277, receptor interaction domain (RID) (protein)
chain: GDHPETIMEEVKIKPPKQQQTTEIHSDKLSRFTTSAEKEAKLVYSNSSSGPTATLQKIPNTHLSSVTTSDLSPGPCHHSSLSQIPSAIPSMPHQPTILLNTVSASASPCLHPGAQNIPSPTGLPRCRSGSHTIGPFSSFQSAAHIYSQKLSRPSSAKAGSCYLNKHHSGIAKTQKEGEDASLYSKRYNQSMVTAELQRLAEKQAARQYSPSSHINLLTQQVTNLNLATGIINRSSASAPPTLRPIISPSGPTWSTQSDPQAPENHSSSPGSRSLQTGGFAWEGEVENNVYSQATGVVPQHKYHPTAGSYQLQFALQQLEQQKLQSRQLLDQSRARHQAIFGSQTLPNSNLWTMNNGAGCRISSATASGQKPTTLPQKVVPPPSSCASLVPKPPPNHEQVLRRATSQKASKGSSAEGQLNGLQSSLNPAASVPITSSTDPAHTKI
Take B2: the “interaction with PPARγ2” value in the data set with PPARγ2 is on record as “lack of interaction”.

B3: 6-6CL1: STAMP fragment amino acids 623-834, coactivator interaction domain (CID) (protein)
chain: ENTPKENSMKVREWNNKGGHCCKLETQELEPKFNLMQILQDNGNLSKMQARIAFSAYLQHVQIRLMKDSGGQTFSASWAAKEDEQMELVVRFLKRASNNLQHSLRMVLPSRRLALLERRRILAHQLGDFIIVYNKETEQMAEKKSKKKVEEEEEDGVNMENFQEFIRQASEAELEEVLTFYTQKNKSASVFLGTHSKISKNNNNYSDSGAKG
Regarding B3, the “interaction with TIF2.4m123” value in the data set with TIF2.4m123 was “did not interact”. In addition, the “interaction with TIF2(1140C)” value with TIF2(1140C) is “does not interact”.

The values above are taken from patent US7867500B2, “Cofactor that modulates steroid receptor activities” (The United States of America as represented by the …, priority 2004, dated 2011).
